Results from patent US20130345401.

Test system: T1, human fibrinogen produced in a silkworm (recombinant fibrinogen extracted from cocoons of β42-3×α/γ106-2×IM transgenic silkworms)
T1 sequence 1: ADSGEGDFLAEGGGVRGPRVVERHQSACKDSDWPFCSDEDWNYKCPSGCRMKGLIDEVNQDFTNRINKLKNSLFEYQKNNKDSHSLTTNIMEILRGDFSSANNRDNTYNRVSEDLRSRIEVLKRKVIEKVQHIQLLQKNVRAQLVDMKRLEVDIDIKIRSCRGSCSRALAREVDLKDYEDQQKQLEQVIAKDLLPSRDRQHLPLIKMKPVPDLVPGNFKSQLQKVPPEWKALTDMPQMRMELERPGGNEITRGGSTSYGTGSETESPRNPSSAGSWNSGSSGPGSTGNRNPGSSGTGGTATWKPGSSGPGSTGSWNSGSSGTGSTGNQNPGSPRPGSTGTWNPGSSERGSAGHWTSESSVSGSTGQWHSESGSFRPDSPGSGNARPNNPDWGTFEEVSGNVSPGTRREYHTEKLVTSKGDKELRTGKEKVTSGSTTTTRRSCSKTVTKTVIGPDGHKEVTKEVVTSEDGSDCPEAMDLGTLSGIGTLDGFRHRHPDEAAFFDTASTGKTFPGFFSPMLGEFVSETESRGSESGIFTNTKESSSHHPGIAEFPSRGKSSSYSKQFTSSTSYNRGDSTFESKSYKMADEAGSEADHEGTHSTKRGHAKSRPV
T1 sequence 2: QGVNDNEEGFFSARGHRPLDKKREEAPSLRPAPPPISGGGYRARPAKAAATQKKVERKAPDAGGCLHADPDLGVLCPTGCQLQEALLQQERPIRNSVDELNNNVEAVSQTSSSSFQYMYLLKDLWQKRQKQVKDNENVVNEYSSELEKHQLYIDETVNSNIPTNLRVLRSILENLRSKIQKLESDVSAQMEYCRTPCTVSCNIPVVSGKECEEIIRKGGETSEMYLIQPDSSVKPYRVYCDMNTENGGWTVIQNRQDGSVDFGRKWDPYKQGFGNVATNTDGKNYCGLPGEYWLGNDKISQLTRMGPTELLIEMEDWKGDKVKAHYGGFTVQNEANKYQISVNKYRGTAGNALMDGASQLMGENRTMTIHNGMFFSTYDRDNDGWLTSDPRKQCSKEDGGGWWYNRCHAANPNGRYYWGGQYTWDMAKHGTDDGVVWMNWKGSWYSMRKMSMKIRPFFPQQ
T1 sequence 3: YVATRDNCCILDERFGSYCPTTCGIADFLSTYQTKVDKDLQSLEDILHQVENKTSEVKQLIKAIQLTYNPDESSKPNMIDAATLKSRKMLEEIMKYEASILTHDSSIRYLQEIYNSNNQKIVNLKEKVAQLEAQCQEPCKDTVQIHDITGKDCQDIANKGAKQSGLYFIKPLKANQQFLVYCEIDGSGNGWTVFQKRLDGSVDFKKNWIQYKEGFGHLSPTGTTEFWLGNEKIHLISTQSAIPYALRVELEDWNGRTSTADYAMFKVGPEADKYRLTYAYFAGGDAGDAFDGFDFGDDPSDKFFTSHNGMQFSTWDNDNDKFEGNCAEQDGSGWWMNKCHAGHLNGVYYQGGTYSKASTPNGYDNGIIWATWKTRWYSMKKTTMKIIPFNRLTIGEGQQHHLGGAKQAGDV

With thrombin (Calbiochem) the “coagulation (fibrin clot formation): viscosity of the liquid after incubation with 10 U/ml thrombin at 37° C. for 1 hour” value was “viscosity of the liquid increased to an extent where, when the liquid was sucked into a pipette, the liquid hardly dropped from the tip of the pipette”.
